Laboratory results published in US20260167728A1 (published 2026).
Substitutions are numbered along the chain they refer to.

Experiments:
human EGFR [1] = molecular target: T1, human EGFR (human, UniProt P00533 25-645, limits assumed); experiment: cell-based or functional assay
human CD3 [2] = molecular target: T2, human CD3 (human, UniProt P07766 23-126); experiment: method not stated
human EGFR [3] = molecular target: T1, human EGFR; experiment: BLI, room temperature
Procedure: Each construct was expressed in small-scale and purified. Thermal stability was determined by Differential Scanning Fluorimetry. Melting temperature (Tₘ) determined by Differential Scanning Fluorimetry experiments described herein were performed either in duplicate or triplicate using GloMelt™ dye and QuantStudio5™. GloMelt™ dye undergoes fluorescence enhancement upon binding to hydrophobic regions of denatured proteins. Therefore, the dye can be used to detect protein unfolding or measure thermal stability. GloMelt™ dye is optimized for detection in the SYBR® Green channel of qPCR instruments. The Differential Scanning Fluorimetry experiments were performed in 96-well plates with 10 μg protein/reaction (equal to 0.5 mg/mL final protein concentration), reaction buffer, and GloMelt™ 10× dye according to manufacturer's instructions. Fluorescence of 96-well plates was read and melt curve plots were generated in the QuantStudio5™ qPCR system. Binding affinity was analyzed with bio-layer interferometry at room temperature with human EGFR as the antigen.

huCD3e = huCD3e (human, UniProt P07766 23-126); experiment: Octet primary screen, crude lysate
Procedure: Stability and affinity of the individually expressed molecules in the form of crude lysate was evaluated by Octet. […] The binding of these anti-CD3 molecules (CD3.227, CD3.228, CD3.229 and CD3.230) to human and cynomolgus CD3 was measured by Octet and the Tₘ was measured by Differential Scanning Fluorimetry. All variants were paired with an anti-PSMA VHH.

huCD3e-Fc = molecular target: T3, huCD3e-Fc (human, UniProt P07766 23-126); experiment: Octet, purified paTCE
T3 construct: not shown: Fc, not described
Procedure: (§1) […] […] The binding of these anti-CD3 molecules (CD3.227, CD3.228, CD3.229 and CD3.230) to human and cynomolgus CD3 was measured by Octet and the Tₘ was measured by Differential Scanning Fluorimetry. All variants were paired with an anti-PSMA VHH.

cyCD3e-Fc = molecular target: T4, cyCD3e-Fc (cynomolgus, UniProt Q95LI5 22-117); experiment: Octet, purified paTCE
T4 construct: not shown: Fc, not described
T4 sequence (looked up): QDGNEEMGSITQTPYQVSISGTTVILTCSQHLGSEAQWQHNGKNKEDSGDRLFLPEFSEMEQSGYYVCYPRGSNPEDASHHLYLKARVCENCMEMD
Procedure: as §1

huCD3e-mFc [4] = molecular target: T5, huCD3e-mFc (human, UniProt P07766 23-126); experiment: Pool 3 screen, R2
T5 construct: not shown: mFc, not described

huCD3e-mFc [5] = molecular target: T5, huCD3e-mFc; experiment: Pool 3 screen, R3
huCD3e-mFc [6] = molecular target: T5, huCD3e-mFc; experiment: Pool 3 screen
human CD3 [7] = molecular target: T2, human CD3; experiment: Octet
human CD3 [8] = molecular target: T2, human CD3; experiment: Octet, crude lysate
Procedure: Structural considerations included: possible contact disruption, anticipated steric clashes, side chain charge maintenance and possible pockets filling. Stability and affinity of the individually expressed molecules in the form of crude lysate was evaluated by Octet (ForteBio).

T2 sequence (P07766 23-126 limits assumed): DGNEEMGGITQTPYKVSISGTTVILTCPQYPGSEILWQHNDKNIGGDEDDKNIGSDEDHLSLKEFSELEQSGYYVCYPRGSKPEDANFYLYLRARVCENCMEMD
T5 sequence (P07766 23-126): as the sequence (P07766 23-126 limits assumed) above
huCD3e, sequence (P07766 23-126): as the sequence (P07766 23-126 limits assumed) above
T3 sequence (P07766 23-126): as the sequence (P07766 23-126 limits assumed) above

B1: AC2908 (EGFR.60/CD3.23 paTCE) (bispecific antibody)
scFv 1: EIVLTQSPGTLSLSPGERATLSCQASQDISNYLNWYQQKPGQAPRLLIYDASNLETGIPDRFSGSGSGTDFTLTISRLEPEDFAVYYCQHFDHLPLAFGQGTKVEIKGATPPETGAETESPGETTGGSAESEPPGEGQVQLQQWGAGLLKPSETLSLTCAVYGGSVSSGDYYWTWIRQPPGKGLEWIGHIYYSGNTNYNPSLKSRVTISVDTSKNQFSLKLSSVTAADTAVYYCARDRVTGAFDIWGQGTLVTVSS
scFv 2: ELVVTQEPSLTVSPGGTVTLTCRSSNGAVTSSNYANWVQQKPGQAPRGLIGGTNKRAPGTPARFSGSLLGGKAALTLSGVQPEDEAVYYCALWYPNLWVFGGGTKLTVLGATPPETGAETESPGETTGGSAESEPPGEGEVQLLESGGGIVQPGGSLKLSCAASGFTFNTYAMNWVRQAPGKGLEWVARIRSKYNNYATYYADSVKDRFTISRDDSKNTVYLQMNNLKTEDTAVYYCVRHENFGNSYVSWFAHWGQGTLVTVSS
notes: EGFR library format (remarks)
With B1 the “EC50 HT-29 (pM), in vitro cytotoxicity, E:T 5:1” value (human EGFR [1]) was 94 pM, the Kd (human CD3 [2]) was about 203 nM and the Kd (human EGFR [3]) was 7.3 nM.

B2: AC2920 (EGFR.72/CD3.23 paTCE) (bispecific antibody)
scFv 1: B1 scFv 1 with G9A, D60A, R77S
scFv 2: B1 scFv 2
notes: EGFR library format (remarks)
B2 was tested, and the “EC50 HT-29 (pM), in vitro cytotoxicity, E:T 5:1” value (human EGFR [1]) was 85 pM, the Kd (human CD3 [2]) was about 203 nM and the Kd (human EGFR [3]) was 4.4 nM.

B3: AC3471 (CD3.23, WT) (bispecific antibody, V domains shown)
VH: EVQLLESGGGIVQPGGSLKLSCAASGFTFNTYAMNWVRQAPGKGLEWVARIRSKYNNYATYYADSVKDRFTISRDDSKNTVYLQMNNLKTEDTAVYYCVRHENFGNSYVSWFAHWGQGTLVTVSS
VL: ELVVTQEPSLTVSPGGTVTLTCRSSNGAVTSSNYANWVQQKPGQAPRGLIGGTNKRAPGTPARFSGSLLGGKAALTLSGVQPEDEAVYYCALWYPNLWVFGGGTKLTVL
notes: Pool 2 format (remarks)
Work on B3 yielded a Kd (huCD3e) of 13.5 nM.

B4: AC2717 (CD3.23, WT) (bispecific antibody, V domains shown)
VH: B3 VH
VL: B3 VL
notes: Pool 2 format (remarks); paired with an anti-PSMA VHH variant
B4 gave a Kd (huCD3e) of 12.9 nM.

B5: CD3.23 anti-CD3 scFv (scFv, V domains shown)
VH: B3 VH
VL: B3 VL
notes: Parental domain
Binder B5 has a Kd (huCD3e-Fc) of 131 nM, a koff (huCD3e-Fc) of 0.0289 s⁻¹ and a kon (huCD3e-Fc) of 220000 M⁻¹ s⁻¹. It also gave a Kd (cyCD3e-Fc) of 130 nM, a koff (cyCD3e-Fc) of 0.0312 s⁻¹ and a kon (cyCD3e-Fc) of 240000 M⁻¹ s⁻¹.

B6: AC3768 (CD3.23 control) (scFv, V domains shown)
VH: B3 VH
VL: B3 VL
notes: Pool 3 format (remarks)
Binder B6 has a Kd (huCD3e-mFc [4]) of 8 nM, a Kd (huCD3e-mFc [5]) of 5.6 nM and a Kd (huCD3e-mFc [6]) of 4.67 nM. It also gave a Kd (human CD3 [7]) of 4.67 nM.

B7: AC3364 (CD3.23-L7, WT) (bispecific antibody, V domains shown)
VH: B3 VH
VL: B3 VL
notes: Pool 1 format (remarks)
B7 was tested, and the Kd (human CD3 [8]) was 8.5 nM.

B8: AC3822 (CD3.318) (scFv, V domains shown)
VH: B3 VH with L5V, K19R, N30S, A49G, S53T, Y55R, N57D, D68G, V81L, N87S
VL: B3 VL with G70E
notes: Pool 3 format (remarks)
In the case of B8, the Kd (huCD3e-mFc [4]) is reported as 5.7 nM, the Kd (huCD3e-mFc [6]) is reported as 5.38 nM and the Kd (human CD3 [7]) is reported as 5.38 nM.

B9: AC3799 (CD3.295) (scFv, V domains shown)
VH: B3 VH with L5V, K19R, N30S, A49G, S53T, Y55R, D68G, N87S
VL: B3 VL with L69N
notes: Pool 3 format (remarks)
Work on B9 yielded a Kd (huCD3e-mFc [4]) of 3.7 nM, a Kd (huCD3e-mFc [6]) of 3.11 nM and a Kd (human CD3 [7]) of 3.11 nM.

B10: AC3796 (CD3.292) (scFv, V domains shown)
VH: B3 VH with L5V, K19R, N30S, A49G, S53T, Y55R, D68G, N87S
VL: B3 VL
notes: Pool 3 format (remarks)
In the case of B10, the Kd (huCD3e-mFc [4]) is reported as 4.1 nM, the Kd (huCD3e-mFc [5]) is reported as 3 nM and the Kd (huCD3e-mFc [6]) is reported as 3.89 nM. It also gave a Kd (human CD3 [7]) of 3.89 nM.

B11: AC3682 (CD3.251) (bispecific antibody, V domains shown)
VH: B3 VH with L5V, K19R, A49G, Y55R, Y61T, N87S
VL: B3 VL
notes: Pool 2 format (remarks)
In the case of B11, the Kd (huCD3e) is reported as 32.8 nM.
